Measured values from paper PMC7951975.

Target: GraS (native), fused to the T18 fragment of adenylate cyclase (Staphylococcus aureus) (UniProt Q2G0D9)
Chain of UniProt Q2G0D9 (Q2G0D9 whole entry, the tested form may be a part): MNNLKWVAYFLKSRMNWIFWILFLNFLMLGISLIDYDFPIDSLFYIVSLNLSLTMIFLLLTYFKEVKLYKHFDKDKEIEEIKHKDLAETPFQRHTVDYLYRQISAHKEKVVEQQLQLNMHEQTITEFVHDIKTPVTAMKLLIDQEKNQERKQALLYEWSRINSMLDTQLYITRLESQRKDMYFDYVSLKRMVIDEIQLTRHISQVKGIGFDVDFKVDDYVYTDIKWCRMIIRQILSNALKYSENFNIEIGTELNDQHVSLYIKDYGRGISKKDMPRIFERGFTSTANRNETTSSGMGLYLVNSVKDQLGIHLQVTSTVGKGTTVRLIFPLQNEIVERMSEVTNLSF

EL peptide of VraG (wild type) (domain or fragment)
survival of the ΔEL vraG mutant of JE2 in a 2-hr. killing assay with 2.5 μg/ml LL-37 in the presence of ~300 ng exogenous EL peptide: 40%
